Consider 23 molecules from patent publication US20220282217A1 (BIONTECH US, published 2022).

Assay [1] concerns the target T1, HLA-B08.01 (human).
T1 construct: As for HLA-A02.01
The experiment in a line: pMHC-I complex dissociation at 37 C, 125I-b2m, half-life. The essentials:
(§1)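 Biotinylated MHC-I heavy chain made in E. coli, captured on streptavidin plates and complexed with peptide and radiolabelled light chain. Dissociation started with excess unlabelled light chain at 37 °C. Stability is the half-life in hours from scintillation counts.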

For assay [2], the target named is HLA-A02.01 (human). The assay is described as above. The essentials:
as §1

The target in assay [3] is T1, HLA-B08.01. Nature of the assay: competition vs radiolabeled reference peptide on purified MHC I, gel filtration. As for the experimental part:
(§2) Peptides were incubated at varying concentrations with these complexes for 2 days, and the amount of remaining radiolabeled peptide bound to […] was measured using size exclusion gel-filtration.

In assay [4] the target is HLA-A02.01 (human). The description is as above. As for the experimental part:
as §2

In a further assay the target is T2, HLA-A01.01 (human).
T2 construct: As for HLA-A02.01
The assay is described as above. On the procedure:
as §2

Assay [5] concerns the target T3, HLA-A03.01 (human).
T3 construct: As for HLA-A02.01
The assay is described as above. On the procedure: as §2

Assay [6] has as its target T4, HLA-A03.01 (human).
T4 construct: Purified class I MHC
The experiment in a line: pMHC-I dissociation half-life, 125I-b2m. An outline of the steps: as §1

For assay [7], the target named is T5, HLA-A11.01 (human).
T5 construct: Purified class I MHC
Nature of the assay: pMHC-I dissociation half-life, 125I-b2m. An outline of the steps: as §1

Assay [8] has as its target T4, HLA-A03.01. Nature of the assay: competition with radiolabeled reference peptide, purified MHC I. On the procedure: as §2
For assay [9], the target named is T5, HLA-A11.01. Described as above. On the procedure:
as §2

Assay [10] has as its target HLA-B08.01 class I MHC molecule (prepared complex) (human). Nature of the assay: dissociation of peptide-MHC-I complex at 37 C, 125I-labelled b2m, scintillation. As for the experimental part: Briefly, synthetic genes encoding biotinylated MHC-I heavy and light chains are expressed in E. coli and purified from inclusion bodies using standard methods. […] These reactions are carried out in streptavidin coated microplates to bind the biotinylated MHC-I heavy chains to the surface and allow measurement of radiolabeled light chain to monitor complex formation. Dissociation is initiated by addition of higher concentrations of unlabeled light-chain and incubation at 37° C. Stability is defined as the length of time in hours it takes for half of the complexes to dissociate, as measured by scintillation counts.

In another assay the target is T6, HLA-B07.02 (human).
T6 construct: As for HLA-A02.01
Nature of the assay: competition vs radiolabeled reference peptide on purified MHC I, gel filtration. On the procedure:
as §2

B1: LATEKSRWS (peptide)
peptide: LATEKSRWS
notes: also called BRAF, V600E
One may read the IC50 as the midpoint of a concentration-inhibition curve. High values mean lower potency, low ones higher potency. Take B1: the “Stability (T1/2 (h))” value in the assay with HLA-B08.01 [1] and in the assay with HLA-A02.01 [2] was 0 h throughout. The results for the IC50 in the assay with HLA-B08.01 [3] and with HLA-A02.01 [4] were 37000 nM and 61000 nM, respectively.

B2: YMANGSLLNY (peptide)
peptide: YMANGSLLNY
notes: also called BTK, C481S
With B2, the IC50 was determined as 13.2 nM with HLA-A01.01 and 95.9 nM in the assay with HLA-A03.01 [5].

B3: VVGACGVGK (peptide)
peptide: VVGACGVGK
notes: also called KRAS, G12C
Turning to B3, the “Measured stability” value came out at 5 h in the assay with HLA-A03.01 [6] and 10 h with HLA-A11.01 [7].

B4: VVGADGVGK (peptide)
peptide: VVGADGVGK
notes: also called KRAS, G12D
Regarding B4, the “Measured stability” value with HLA-A11.01 [7] is 3.4 h.

B5: FLPSTLKSL (peptide)
peptide: FLPSTLKSL
notes: also called ESR1, S463P
As to B5, the “Stability (T1/2 (h))” value with HLA-B08.01 [1] amounted to 0 h. Besides, the IC50 with HLA-B08.01 [3] was 1970 nM.

B6: VVVGADGVGK (peptide)
peptide: VVVGADGVGK
notes: also called KRAS, G12D
In the case of B6, the “Measured stability” value with HLA-A03.01 [6] turned out to be 2.3 h; in the assay with HLA-A11.01 [7], 13 h.

B7: VVVGAVGVGK (peptide)
peptide: VVVGAVGVGK
notes: also called KRAS, G12V
In the case of B7, the “Measured stability” value in the assay with HLA-A03.01 [6] is 6.7 h; with HLA-A11.01 [7], 24.3 h.

B8: CLSFLSSWDY (peptide)
peptide: CLSFLSSWDY
notes: also called C15ORF40(+1)
In the case of B8, the IC50 amounted to 987 nM with HLA-A01.01 and 2710 nM with HLA-A03.01 [5].

B9: AMTTSSSQK (peptide)
peptide: AMTTSSSQK
notes: also called TGFBR2(-1)
Regarding B9, the IC50 with HLA-A03.01 [8] amounted to 8.3 nM; with HLA-A11.01 [9], 162 nM.

B10: LSFLSSWDY (peptide)
peptide: LSFLSSWDY
notes: also called C15ORF40(+1)
In the assay with HLA-A01.01, B10 came in with an IC50 of 52.9 nM.

B11: EGFR_T790M peptide VQLIMQLMPF (peptide)
peptide: VQLIMQLMPF
notes: synthetic peptide holding the EGFR T790M mutation
Regarding B11, in [10], the “Stability (half-life (hr.))” value came out at 0 h.

B12: LATEKSRWSG (peptide)
peptide: LATEKSRWSG
notes: also called BRAF, V600E
As to B12, the “Stability (T1/2 (h))” value in the assay with HLA-B08.01 [1] and with HLA-A02.01 [2] was 0 h throughout. Besides, the IC50 was determined as 46600 nM with HLA-B08.01 [3] and 23300 nM with HLA-A02.01 [4].

B13: EGFR_T790M peptide QLIMQLMPF (peptide)
peptide: QLIMQLMPF
notes: as for B11
With B13, the “Stability (half-life (hr.))” value in assay [10] amounted to 0 h.

B14: SLKKVPALK (peptide)
peptide: SLKKVPALK
notes: also called SMAP1(-1)
Turning to B14, the IC50 with HLA-A03.01 [8] was determined as 4.4 nM; with HLA-A11.01 [9] it was 129 nM.

B15: EGFR_T790M peptide MQLMPFGCL (peptide)
peptide: MQLMPFGCL
notes: as for B11
On to B15, for which the “Stability (half-life (hr.))” value in assay [10] is 0 h.

B16: YPAYSKDSGL (peptide)
peptide: YPAYSKDSGL
notes: also called β2M, . . ; SIRH
In the case of B16, the IC50 in the assay with HLA-B07.02 is 79.5 nM.

B17: SAMTTSSSQK (peptide)
peptide: SAMTTSSSQK
notes: also called TGFBR2(-1)
B17: the IC50 was 15.7 nM in the assay with HLA-A03.01 [8] and 15.8 nM with HLA-A11.01 [9].

B18: VPLYGLLLEM (peptide)
peptide: VPLYGLLLEM
notes: also called ESR1, D538G
Consider B18, for which the IC50 with HLA-B07.02 is 27.9 nM. This lies in the double-digit nanomolar range.

B19: WLHKRGKYI (peptide)
peptide: WLHKRGKYI
notes: also called AKT1, E17K
In the case of B19, in the assay with HLA-B08.01 [1], the “Stability (T1/2 (h))” value is 1.3 h. Also, the IC50 in the assay with HLA-B08.01 [3] is 417 nM.

B20: EGFR_T790M peptide MQLMPFGCLL (peptide)
peptide: MQLMPFGCLL
notes: as for B11
B20: in [10], the “Stability (half-life (hr.))” value came out at 0 h.

B21: EGFR_T790M peptide IMQLMPFGCL (peptide)
peptide: IMQLMPFGCL
notes: as for B11
As for B21, in assay [10], the “Stability (half-life (hr.))” value was found to be 0 h.

B22: MSVCFFFFCY (peptide)
peptide: MSVCFFFFCY
notes: also called CNOT1(-1)
On to B22, for which, in the assay with HLA-A01.01, the IC50 is 4370 nM. This counts as single-digit micromolar.

B23: KISNWSLKK (peptide)
peptide: KISNWSLKK
notes: also called SMAP1(-1)
Regarding B23, the IC50 was 8.8 nM in the assay with HLA-A03.01 [8] and 9.8 nM with HLA-A11.01 [9].
